According to PMC3765442:
Values belong to the binder of their own block, whether it stands above or below them.

Tests used:
Conditions in all cases: remark: other sources report otherwise
[1] = biological target: T1, EB1-GFP (C-terminally EGFP-His-tagged human EB1) (human), Q15691; assay: SEC-MALS; Superdex 200 10/30 with in-line multi-angle light scattering; 1 to 4 mg/ml injected in 100 µl (about 1 µM at the peak); 20 mM Tris-HCl pH 7.5, 300 mM NaCl, 2 mM DTT; room temperature; single experiments
T1 chain: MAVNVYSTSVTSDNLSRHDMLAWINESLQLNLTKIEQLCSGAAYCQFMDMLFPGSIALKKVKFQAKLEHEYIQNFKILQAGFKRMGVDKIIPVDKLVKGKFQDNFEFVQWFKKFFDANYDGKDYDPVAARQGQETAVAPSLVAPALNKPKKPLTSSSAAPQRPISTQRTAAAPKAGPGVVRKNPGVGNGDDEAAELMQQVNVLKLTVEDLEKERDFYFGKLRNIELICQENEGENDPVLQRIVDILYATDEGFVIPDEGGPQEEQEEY

[2] = biological target: T1, EB1-GFP (C-terminally EGFP-His-tagged …); assay: AUC; fluorescence sedimentation velocity (GFP signal at 488 nm), 22°C; dilution series from about 500 to about 0.5 nM (monomer equivalents); 20 mM Tris-HCl pH 7.5, 300 mM NaCl, 0.2 mg/ml BSA, 2 mM DTT or 0.1 mM TCEP; samples incubated 16 hours at 22°C; dimer to monomers; apparent Kd
[3] = biological target: T2, EB1-GFP[A206K] (human), Q15691; assay: as above
T2 chain: T1 chain

stoichiometry N [1]: 2 | stoichiometry N [2]: 2
B1: EB1-GFP (C-terminally EGFP-His-tagged human EB1), Q15691 1-268 (natural protein)
chain: T1 chain

stoichiometry N [3]: 2
B2: EB1-GFP[A206K], Q15691 1-268 (natural protein)
chain: T1 chain
